To fix the notation:
B1: antibody 476 (antibody, V domains shown)
VH: QVQLVQSGSELKKPGASVKVSCKASGYTFTSYAMNWVRQAPGQGLEWMGWINTNTGNPTYAQGFTGRFVFSLDTSVSTAYLQISSLKAEDTGVYYCARDHELPNSSSWFGHFEYWGQGTLVTVSS
VL: SYELTQPPSVSVSPGQTARITCSGDALPKQYAYWYQQKAGQAPVLVIYKDSERRSGIPERFSGSSSGTTVTLTISGVQAEDEADYYCQSADSSGTSVVFGGGTKLTVL
B2: antibody 477 (antibody, V domains shown)
VH: QVQLVESGGGVVQPGRSLRLSCAASGITFSSYAMHWVRQAPGKGLEWVAVISYDGSDKYHADSVKGRFAISRDNSKNTLYLQMNSLRAEDTAVYYCAKDKGIAVAGTGWIRPDPEYYFDYWGQGTLVTVSS
VL: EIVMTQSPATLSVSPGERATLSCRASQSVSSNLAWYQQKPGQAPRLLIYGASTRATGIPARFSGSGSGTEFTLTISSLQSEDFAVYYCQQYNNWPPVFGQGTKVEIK
B3: antibody 475 (antibody, V domains shown)
VH: QVQLVESGGGVVQPGRSLRLSCAASGFTFSSYAMHWVRQAPGKGLEWVTFISHEGSNKYYADSVKGRFTISRDNSKNTLYLQMNSLRAEDTAVYYCARTFEYSSSSATGDFDYWGQGTLVTVSS
VL: QSVLTQPPSVSGAPGQRVTISCTGSSSNIGAGYDVHWYQQLPGTAPKLLIYGNSNRPSGVPDRFSGSKSGTSASLAITGLQAEDEADYYCQSYDSSLSGVVFGGGTKLTVL
B4: antibody 485 (antibody, V domains shown)
VH: QVQLQESGPGLVKPSGTLSLTCAVSGASISSSNWWSWVRQPPGKGLEWIGEIYHSGSTNYNPSLKSRVTISVDKSKNQFSLKLSSVTAADTAVYYCARRSYYGSGSYYPFDYWGQGTLVTVSS
VL: QSALTQPASVSGSPGQSITISCTGTSSDVGSYNLVSWYQQHPGKAPKLMIYEGRKRPSGVSNRFSGSKSGNTASLTISGLQAEDEADYYCCSYAGSSTYVFGTGTKVTVL
B5: antibody 545 (antibody, V domains shown)
VH: B1 VH with S85V
VL: B1 VL
B6: antibody 548 (antibody, V domains shown)
VH: QVQLVESGGGVVQPGRSLRLSCAASGFTFSSYAMHWVRQAPGKGLEWVAVISYDGSNKYYADSVKGRFTISRDNSKNTLYLQMNNLRAEDTAVYYCAKSGSGSYLSAFDIWGQGTMVTVSS
VL: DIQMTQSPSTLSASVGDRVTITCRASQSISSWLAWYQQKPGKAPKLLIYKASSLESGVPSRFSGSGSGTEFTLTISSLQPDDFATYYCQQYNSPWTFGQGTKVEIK
B7: antibody 576 (antibody, V domains shown)
VH: B6 VH with N85S, S99A, S101G, L105Y, S106R, A107G, I110Y, M116L
VL: DIQLTQSPSFLSASVGDRVTITCRASQGISSYLAWYQQKPGKAPKLLIYAASTLQSGVPSRFSGSGSGTEFTLTISSLQPEDFATYYCQQLNSYPTFGPGTKVDIK
B8: antibody 569 (antibody, V domains shown)
VH: B6 VH with N85S, K98R, S99A, G100S, S103G, L105Q, S106G, A107P, I110P, M116L
VL: EIVLTQSPATLSLSPGERATLSCRASQSVSSYLAWYQQKPGQAPRLLIYDASNRATGIPARFSGSGSGTDFTLTISSLEPEDFAVYYCQQRSSPFGPGTKVDIK
B9: antibody 571 (antibody, V domains shown)
VH: EVQLVESGGGLVQPGGSLRLSCAASGFTFSTYWMTWVRQAPGKGLEWVANIKHDGSGKYHVDSVKGRFTISRDNAKNSLYLQMNSLRAEDTAVYYCTRDEGGWYDYWGQGTLVTVSS
VL: QSALTQPASVSGSPGQSITISCTGTSSDVGSYNPVSWYQQHPGKAPKVMIYEGSKRPSGVSNRFSGSKSGNTASLTISGLQAEDEADYYCCSYARSSTFVVFGGGTKLTVL
B10: antibody 564 (antibody, V domains shown)
VH: QVHLVESGGGVVQPGKSLRLSCAASGFIFSSFGMHWVRQPPGKGLEWLAVVSYDGSVTKYSDSFEGRFTISRDNSKNTLYLQMDSLRPEDTAVYYCAKGQGTNLLHYWGQGILVTVSS
VL: DVVLSQSPLSLPVTLGQPASISCRSSESLVYTDGDTYLHWFHQRPGQSPRRLIFKVSHRESGVPDRISGSGSGTDFTLKISRVEAEDVGVYYCMQGTHWPFTFGPGTKVDIK
B11: antibody 566 (antibody, V domains shown)
VH: QVQLVQSGAEVKKPGASVKVSCKASGYTFTSYAMHWVRQAPGQRLEWMGWINAGNGNTKYSQKFQGRVTITRDTSASTAYMELSSLRSEDTAVYYCARDLGVAVTLHPADFDYWGQGTLVTVSS
VL: B3 VL with G52D, G99A
B12: antibody 556 (antibody, V domains shown)
VH: QVQLVESGGGVVQPGRSLRLSCAASGFTFSSYAMHWVRQAPGKGLEWVAVISYDGSDKYYADSVKGRVTISRDNSKNTLYLQMNSLRVEDTAVFYCAKDDCSGGVCFPDYWGQGTLVTVSS
VL: QSALTQPASVSGSPGQSITISCTGTSSDVGGYNYVSWYQQHPGKAPKLMIYEVSIRPSGVSNRFSGSKSGNTASLTISGLQAEDEAAYYCSSYTSSSTLVFGGGTKLTVL
B13: antibody 544 (antibody, V domains shown)
VH: QVQLQQWGAGLLKPSETLSLTCAVYGGSFSGYYWSWIRQPPGKGLEWIGEINHSGSTNYNPSLKSRVTISVDTSKNQFSLKLSSVTAADTAVYYCARGFKWFGELLFGAQGTLVTVSS
VL: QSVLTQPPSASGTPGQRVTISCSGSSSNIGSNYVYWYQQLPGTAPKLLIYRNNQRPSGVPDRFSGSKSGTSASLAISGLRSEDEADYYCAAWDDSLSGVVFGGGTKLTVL
B14: antibody 563 (antibody, V domains shown)
VH: QVQLVESGGGVVQPGRSLRLSCAASGFTFSSYAMHWVRQAPGKGLEWVAVISDDGSNKYYADSVKGRFTISRDNSKNTLYLQMNSLRAEDTAVYYCARDIVATIRRLFDYWGQGTLVTVSS
VL: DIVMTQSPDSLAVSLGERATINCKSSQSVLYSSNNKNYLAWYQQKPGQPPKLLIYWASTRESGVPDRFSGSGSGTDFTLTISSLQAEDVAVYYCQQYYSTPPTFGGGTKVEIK
B15: antibody 560 (antibody, V domains shown)
VH: EVQLVESGGGLVQPGGSLRLSCAASGFTISSNYMSWVRQAPGKGLEWVSVIYSGGSTYYADSVKGRFTISRDNSKNTLYLQMNSLRAEDTAVYYCAREEGEWEKDYYGMDVWGQGTTVTVSS
VL: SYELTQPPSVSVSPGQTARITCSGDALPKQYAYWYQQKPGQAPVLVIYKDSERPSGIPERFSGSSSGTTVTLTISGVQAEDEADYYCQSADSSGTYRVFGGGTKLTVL
B16: antibody 546 (antibody, V domains shown)
VH: QVQLVESGGGVVQPGRSLRLSCAASGFTFSSYGMHWVRQAPGKGLEWVAVIWYDGSNKYYADSVKGRFTISRDNSKNTLYLQMNSLRAEDTAVYYCARNCGGDCVAGDGFDYWGQGTLVTVSS
VL: DIQMTQSPSSLSASVGDRVTITCRASQSISSYLNWYQQKPGKAPNLLIYAASSLQSGVPSRFSGSGSGTDFTLTISSLQPEDFATYYCQQSYSALTWTFGQGTKVEIK
B17: anti-SARS-CoV-2 antibody 1012 (antibody, V domains shown)
VH: EVQVVESGGGLVQPGGSRRLSCTASGFTLRNYWMSWVRQAPGKGLEWVANIKQDGSEKYYVDSVKGRFTISRDNAKNSLYLQMDSLRAEDTAVYYCARGGRYCPGGSCPRWGRGTLVTVSS
VL: DIQMTQSPSSLSASVGDRVTITCQASQDISNFLNWYQLKPGEAPTLLIFDASKLETGVPSRFSGTGFGTDFTFTISSLQPEDTATYYCQQYDDLTSITLGQGTRLEIK
B18: anti-SARS-CoV-2 antibody 989 (antibody, V domains shown)
VH: QVQLQESGPGLVKPSQTLSLTCTVSGGSISSGSYYWSWIRQPAGKGLEWIGRIYTSGSTNYNPSLKSRVTMSVDTSKNHFSLKLRSVTAADTAVYYCARGIAVAGDDDYYYYYGLDVWGQGTTVTVSS
VL: B1 VL with A39P, L45M, Y48N, R54P, Q88H, S96Y, V97W
B19: anti-SARS-CoV-2 antibody 1000 (antibody, V domains shown)
VH: EVQLVESGGGLVQPGRSLRLSCAASGFTFDDYAMHWVRQAPGEGLEWVSGISWNSGSIGYADSVKGRFTISRDNAKNSLYLQMNSLRAEDTALYYCAKDTRFSFGTIAAAVSGYGMDVWGQGTTVTVSS
VL: QSALTQPASVSGSPGQSITISCTGTSSDVGIFNLVSWYQQHPGKAPKLMIYEVTKRPSGVSNRFSGSKSGNTASLTISGLQAEDEADYYCCSYAGSYVFGTGTKVTVL
B20: anti-SARS-CoV-2 antibody 966 (antibody, V domains shown)
VH: QVQLVESGGGVVQPGRSLRLSCAASEFTFSSYGMHWVRQAPGKGLEWVAVISHDGSNEYYADSVKGRFTISRDNSKNTLYLQMNSLRAEDTAVYYCAKWRGPHRGYYDRSGYYLGSSRDDYWGQGTLVTVSS
VL: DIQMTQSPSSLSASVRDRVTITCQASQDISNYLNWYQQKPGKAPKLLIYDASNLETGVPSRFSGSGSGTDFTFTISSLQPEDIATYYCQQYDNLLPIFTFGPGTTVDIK

We go through 20 molecules from patent US20210292393A1 (published 2021).

Changes are numbered by the printed parent chain.

For one test, the target named is SARS-CoV spike protein (full length, trimeric) (SARS-CoV, UniProt P59594 14-1190).
Experiment: not given
For the molecule B1, the “fold over isotype control (median fluorescence)” value was 1.04 fold over isotype.
The same measure, in the same setting: the figure for B2 is 1.3 fold over isotype; for B3 it is 1.18 fold over isotype; for B4 it is 1.12 fold over isotype.

A further test concerns the target SARS-CoV spike protein (full-length trimeric, conjugated to optically encoded beads) (SARS-CoV, UniProt P59594 14-1190).
Experiment: not given
Regarding B5, the “fold over isotype control (median fluorescence intensity)” value (from here on “fold … (median fluorescence intensity)”) worked out at 1.13 fold over isotype.
Turning to B6, the “fold … (median fluorescence intensity)” value stood at 18.1 fold over isotype.
Regarding B7, the “fold … (median fluorescence intensity)” value turned out to be 6.87 fold over isotype.
Take B8: the “fold … (median fluorescence intensity)” value is 3.31 fold over isotype.
On to B9, for which the “fold … (median fluorescence intensity)” value came to 1.28 fold over isotype.
Consider B10, for which the “fold … (median fluorescence intensity)” value amounted to 37.3 fold over isotype.
Take B11: the “fold … (median fluorescence intensity)” value came out at 0.97 fold over isotype.
On to B12, for which the “fold … (median fluorescence intensity)” value amounted to 1.09 fold over isotype.
B13: the “fold … (median fluorescence intensity)” value came out at 1.05 fold over isotype.
With B14, the “fold … (median fluorescence intensity)” value is 35.4 fold over isotype.
Consider B15, for which the “fold … (median fluorescence intensity)” value turned out to be 1.14 fold over isotype.
Take B16: the “fold … (median fluorescence intensity)” value was 1.18 fold over isotype.

The next test has as its target SARS-CoV-2 spike protein (wild type), spike protein trimer (SARS-CoV-2, UniProt P0DTC2 14-1208).
Experiment: not given
As for B17, the dissociation constant Kd was found to be 0.139 nM.
On to B18, for which the Kd was found to be 0.104 nM. The Kd values of the last two molecules are within 1.5-fold of each other.
In turn, B19 yielded a Kd of 0.092 nM.
Turning to B20, the Kd stood at 1.8 nM.

Another test deals with SARS-CoV-2 full-length spike protein on pseudotyped lentivirus (SARS-CoV-2, UniProt P0DTC2 14-1273). Put plainly: cell-based or functional assay.
With B17, the “Pseudo-neutralization IC50” value was 0.006 µg/mL.
Still for that read-out and setting: the figure for B18 is 0.19 µg/mL; for B19 it is 0.006 µg/mL.
Same read-out and setting: the figure for B20 is 0.021 µg/mL.

For the next test, the target named is spike protein of SARS-CoV-2 clinical isolate USA/WA/1/2020 (live virus) (SARS-CoV-2, UniProt P0DTC2 14-1273). Kind of test: cell-based or functional assay.
Turning to B17, the “Live Virus Neutralization IC50” value was found to be 0.028 µg/mL.
Take B18: the “Live Virus Neutralization IC50” value was 1.5 µg/mL.
As for B19, the “Live Virus Neutralization IC50” value worked out at 0.013 µg/mL.
As for B20, the “Live Virus Neutralization IC50” value is greater than 10 µg/mL.
